We go through one molecule from patent US20100166734A1 (published 2010).

Experiment [1] has as its target T1, human pIgR overexpressed in MDCK cells (human, UniProt P01833 19-764).
T1 construct: whole, on cells; also called hpIgR; human polymeric immunoglobulin receptor
Nature of the experiment: immunoprecipitation from cell lysates with His-tagged nanobodies on talon beads, blot with a-hSC.

For experiment [2], the target named is T2, ectodomain of human pIgR (R&D Systems Cat #2717-PG) (human, UniProt P01833 19-638).
T2 construct: extracellular domain; Immobilised on Maxisorp plates at 5 ug/ml; also called pIgR ectodomain
T2 sequence (P01833 19-638): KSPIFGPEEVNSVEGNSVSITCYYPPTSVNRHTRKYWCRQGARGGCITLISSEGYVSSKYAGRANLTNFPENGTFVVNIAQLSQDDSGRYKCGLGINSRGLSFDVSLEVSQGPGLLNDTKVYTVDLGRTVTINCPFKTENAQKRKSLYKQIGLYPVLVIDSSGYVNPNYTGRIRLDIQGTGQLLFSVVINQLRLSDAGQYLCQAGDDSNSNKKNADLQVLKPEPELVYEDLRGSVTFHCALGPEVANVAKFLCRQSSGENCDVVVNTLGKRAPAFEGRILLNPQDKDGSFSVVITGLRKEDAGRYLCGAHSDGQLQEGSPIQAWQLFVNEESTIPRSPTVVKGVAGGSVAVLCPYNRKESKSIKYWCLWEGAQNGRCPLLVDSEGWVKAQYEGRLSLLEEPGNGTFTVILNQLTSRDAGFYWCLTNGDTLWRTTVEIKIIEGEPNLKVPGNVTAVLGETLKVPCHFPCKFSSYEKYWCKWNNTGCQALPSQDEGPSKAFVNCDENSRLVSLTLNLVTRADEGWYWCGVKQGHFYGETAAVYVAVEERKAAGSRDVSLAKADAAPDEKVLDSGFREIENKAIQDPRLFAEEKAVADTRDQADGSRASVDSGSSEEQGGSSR
Nature of the experiment: competition ELISA, dilution series of purified Nanobody against 1 ug/ml IgA on immobilised pIgR ectodomain.

T1 sequence (P01833 19-764): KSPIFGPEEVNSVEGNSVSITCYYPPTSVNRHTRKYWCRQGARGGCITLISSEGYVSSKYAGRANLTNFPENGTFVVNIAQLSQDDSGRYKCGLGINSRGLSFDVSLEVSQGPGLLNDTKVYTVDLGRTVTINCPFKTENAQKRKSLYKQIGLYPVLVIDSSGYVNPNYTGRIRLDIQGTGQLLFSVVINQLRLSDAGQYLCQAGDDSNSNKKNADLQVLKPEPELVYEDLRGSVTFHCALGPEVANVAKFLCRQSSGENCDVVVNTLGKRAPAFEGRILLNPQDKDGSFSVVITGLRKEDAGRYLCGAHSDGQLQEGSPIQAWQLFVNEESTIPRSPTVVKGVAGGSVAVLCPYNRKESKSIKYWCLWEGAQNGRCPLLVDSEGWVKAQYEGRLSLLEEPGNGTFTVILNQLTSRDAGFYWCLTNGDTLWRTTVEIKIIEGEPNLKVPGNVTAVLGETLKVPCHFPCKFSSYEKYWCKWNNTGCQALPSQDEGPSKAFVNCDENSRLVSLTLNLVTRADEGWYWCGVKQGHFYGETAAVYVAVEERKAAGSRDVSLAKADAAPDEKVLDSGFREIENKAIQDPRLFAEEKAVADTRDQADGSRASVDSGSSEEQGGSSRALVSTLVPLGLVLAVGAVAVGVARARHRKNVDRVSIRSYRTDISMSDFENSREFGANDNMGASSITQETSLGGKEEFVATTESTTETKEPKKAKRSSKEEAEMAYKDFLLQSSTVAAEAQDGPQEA

B1: 1D7 (VHH)
VHH: EVQLVESGGGLVQSGGSLRLSCAASGRAFNYYAMGWFRQAPGKERELVAVINWSGGTTSYADSVKGRFTISRSNAKNTVYLQMSSLKPEDTAVYYCAADSIYRTSKDYNYWGQGTQVTVSS
notes: Carries myc and His tags (detected with anti-myc, pulled down on talon beads)
For B1, the binding result in experiment [1] and in experiment [2] was “binds” in each case.
